Source: paper PMC8973899

Molecular target: BD-GmSPX8 (soybean (Glycine max))

luciferase (LUC) signal of E-box-LUC in N. benthamiana leaves with PSK-GmPTF1 and PSK-GmSPX8 against PSK-GmPTF1 alone: 50%
β-galactosidase activity of yeast cells AH109 with pGBKT7-BD-GmPTF1 and pGADT7-AD-GmSPX8 against pGBKT7-BD-GmPTF1 alone: 2 times
Substance: AD-GmPTF1 (natural protein)
